Here are results for eleven molecules from patent publication US20200102347A1 (AUCTUS BIOLOGIES, published 2020).

Changes are numbered by the printed parent chain. Names may count otherwise. No end group written: not given here. *: point of attachment. RhodamineB = CCN(CC)c1ccc2c(-c3ccccc3C(=O)*)c3ccc(=[N+](CC)CC)cc-3oc2c1

Sequences and labels used below:
T1: NativeRPtag(large)_with_Tags_and_Cys (Thermoanaerobacter tengcongensis)
T1 construct: Unlabeled in anisotropy assays; coupled through the engineered N-terminal Cys to SulfoLink agarose or maleimide plates in column, pull-down and ELISA assays
T1 chain: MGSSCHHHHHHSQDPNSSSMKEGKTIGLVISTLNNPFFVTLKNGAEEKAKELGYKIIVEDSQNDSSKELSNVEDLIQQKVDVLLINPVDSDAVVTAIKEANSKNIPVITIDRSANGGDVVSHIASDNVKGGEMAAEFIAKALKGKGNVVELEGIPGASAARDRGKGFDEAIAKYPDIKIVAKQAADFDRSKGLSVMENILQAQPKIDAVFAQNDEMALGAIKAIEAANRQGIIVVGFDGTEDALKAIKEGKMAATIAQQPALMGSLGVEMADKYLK

T2: MaturePDGF-β_NterminalPeptide
T2 construct: an N-terminal G was added and is left out of the numbering; also called PDGF-β peptide
T2 peptide: RhodamineB-GSLGSLTIAEPAMIAE

B1: RPtag(small) Nd2, Cd4 (peptide)
peptide: RhodamineB-KIPNFIPAELKLITK
B2: a253k (designed binder)
single chain: T1 chain with A253K
notes: also called RPtag(large) A253K
B3: d126a (designed binder)
single chain: T1 chain with D126A
notes: also called RPtag(large) D126A
B4: a253r (designed binder)
single chain: T1 chain with A253R
notes: also called RPtag(large) A253R

The target in one assay is T1, NativeRPtag(large)_with_Tags_and_Cys. Kind of assay: fluorescence anisotropy.
As for B1, the Kd is 0.41 nM.

In turn, RhodamineB-KIANFIPAELKLITK [RPtag(small) Nd2, Cd4, p5a] registered a Kd of 0.82 nM. This Kd is about 2-fold higher than that of the molecule before.

In the case of RhodamineB-KIPNFIPAELKLITKANAA [RPtag(small) Nd2, e18a, v20a, q21a], binding was put at a Kd of 0.36 nM.

In the case of RhodamineB-KIANFIPAELKLITKANAA [RPtag(small) Nd2, p5a, e18a, v20a, q21a], the Kd came out at 0.16 nM. This Kd lies about 2.2-fold lower than the previous one.

RhodamineB-KIPNFIPAELKLITKE [RPtag(small) Nd2, Cd3]: binding was characterised by a dissociation constant (Kd) of 0.56 nM.

Molecule RhodamineB-KIANFIPAELKLITKA [RPtag(small) Nd2, Cd3, p5a, e18a] registered a Kd of 0.56 nM.

Consider RhodamineB-KIPNFIPAELKLITKA [RPtag(small) Nd2, Cd3, e18a], for which the affinity, expressed as Kd, was 0.13 nM.

For RhodamineB-KIANFIPAELKLITKE [RPtag(small) Nd2, Cd3, p5a], the Kd came out at 0.64 nM. Against the preceding molecule, the Kd is about 4.9-fold higher.

Another assay shares this target. In words: calculated from koff and Kd.
With B1, the kon was 3.33e+06 M⁻¹ s⁻¹.

Consider RhodamineB-KIANFIPAELKLITK [RPtag(small) Nd2, Cd4, p5a], for which the kon was 3.67e+06 M⁻¹ s⁻¹.

Turning to RhodamineB-KIPNFIPAELKLITKANAA [RPtag(small) Nd2, e18a, v20a, q21a], the kon was 600000 M⁻¹ s⁻¹.

On to RhodamineB-KIANFIPAELKLITKANAA [RPtag(small) Nd2, p5a, e18a, v20a, q21a], for which the kon was 3.33e+06 M⁻¹ s⁻¹.

With RhodamineB-KIPNFIPAELKLITKE [RPtag(small) Nd2, Cd3], the kon is 1.37e+06 M⁻¹ s⁻¹.

Regarding RhodamineB-KIANFIPAELKLITKA [RPtag(small) Nd2, Cd3, p5a, e18a], the kon is 5.5e+06 M⁻¹ s⁻¹.

As for RhodamineB-KIPNFIPAELKLITKA [RPtag(small) Nd2, Cd3, e18a], the kon is 6.67e+06 M⁻¹ s⁻¹.

For RhodamineB-KIANFIPAELKLITKE [RPtag(small) Nd2, Cd3, p5a], the kon was 4.33e+06 M⁻¹ s⁻¹.

The target is the same in another assay. In words: fluorescence anisotropy, competitor chase.
B1: the koff was determined as 0.00132 s⁻¹.

For the molecule RhodamineB-KIANFIPAELKLITK [RPtag(small) Nd2, Cd4, p5a], the koff was 0.003 s⁻¹.

In turn, RhodamineB-KIPNFIPAELKLITKANAA [RPtag(small) Nd2, e18a, v20a, q21a] displayed a koff of 0.000383 s⁻¹.

Consider RhodamineB-KIANFIPAELKLITKANAA [RPtag(small) Nd2, p5a, e18a, v20a, q21a], for which the koff is 0.000217 s⁻¹.

RhodamineB-KIPNFIPAELKLITKE [RPtag(small) Nd2, Cd3] gave a koff of 0.000767 s⁻¹.

RhodamineB-KIANFIPAELKLITKA [RPtag(small) Nd2, Cd3, p5a, e18a] came in with a koff of 0.003 s⁻¹.

In the case of RhodamineB-KIPNFIPAELKLITKA [RPtag(small) Nd2, Cd3, e18a], the koff was 0.000883 s⁻¹.

RhodamineB-KIANFIPAELKLITKE [RPtag(small) Nd2, Cd3, p5a] registered a koff of 0.00267 s⁻¹. Against the preceding molecule, the koff is about 3-fold higher.

The next assay has the same target. In words: fluorescence anisotropy, association kinetics.
As for B1, the “Keq (S-S*)” value is 0.7, the “kf (S to S*)” value stood at 0.093 min⁻¹ and the “kr (S* to S)” value was found to be 0.13 min⁻¹.

On to RhodamineB-KIANFIPAELKLITK [RPtag(small) Nd2, Cd4, p5a], for which the “Keq (S-S*)” value worked out at 0.8, the “kf (S to S*)” value worked out at 0.11 min⁻¹ and the “kr (S* to S)” value is 0.14 min⁻¹.

As to RhodamineB-KIPNFIPAELKLITKANAA [RPtag(small) Nd2, e18a, v20a, q21a], the “Keq (S-S*)” value came out at 0.8, the “kf (S to S*)” value came to 0.045 min⁻¹ and the “kr (S* to S)” value is 0.06 min⁻¹.

RhodamineB-KIANFIPAELKLITKANAA [RPtag(small) Nd2, p5a, e18a, v20a, q21a]: the “Keq (S-S*)” value was 0.4, the “kf (S to S*)” value was 0.05 min⁻¹ and the “kr (S* to S)” value is 0.14 min⁻¹.

For the molecule RhodamineB-KIPNFIPAELKLITKE [RPtag(small) Nd2, Cd3], the “Keq (S-S*)” value was 0.6, the “kf (S to S*)” value was found to be 0.081 min⁻¹ and the “kr (S* to S)” value turned out to be 0.14 min⁻¹.

As for RhodamineB-KIANFIPAELKLITKA [RPtag(small) Nd2, Cd3, p5a, e18a], the “Keq (S-S*)” value was 0.7, the “kf (S to S*)” value came out at 0.086 min⁻¹ and the “kr (S* to S)” value came out at 0.13 min⁻¹.

RhodamineB-KIPNFIPAELKLITKA [RPtag(small) Nd2, Cd3, e18a]: the “Keq (S-S*)” value amounted to 0.3, the “kf (S to S*)” value stood at 0.084 min⁻¹ and the “kr (S* to S)” value stood at 0.26 min⁻¹.

Turning to RhodamineB-KIANFIPAELKLITKE [RPtag(small) Nd2, Cd3, p5a], the “Keq (S-S*)” value was 0.6, the “kf (S to S*)” value is 0.093 min⁻¹ and the “kr (S* to S)” value was determined as 0.16 min⁻¹.

A further assay addresses B1. In words: fluorescence anisotropy; 2 nM rhodamine Nd2Cd4, unlabeled RPtag large variant titrated; bar of Ka = 1/Kd, right axis.
Protocol: (§1) After the incubation, fluorescence anisotropy was measured, and the resultant curves were fit with the equation f=y0+(ymax−y0)*(Ptot+x+Kd−sqrt((Ptot+x+Kd)\hat{ }2−4*Ptot*x))/(2*Ptot), where y0 is the baseline anisotropy, ymax is the maximum anisotropy, Ptot is the fixed concentration of labeled peptide used, x is the variable concentration of protein used, and Kd is the measured Kd. […] Buffer was 50 mM Tris pH 8.0, 0.005% Tween20.
In the case of B2, the binding result is reported as “binds”.

On to B3, for which the binding result was “binds”.

Regarding B4, the binding result is “binds”.

The target in the next assay is T2, MaturePDGF-β_NterminalPeptide. In words: fluorescence anisotropy; 20 nM rhodamine PDGF-β N-terminal peptide, unlabeled RPtag large variant titrated; bar of Ka = 1/Kd, left axis.
Protocol: as §1
As to B2, the binding result is recorded as “binds”.

With B3, the binding result is reported as “binds”.

Take B4: the binding result is given as “binds”.
